Measured values from article doi:10.1101/2024.07.12.603331.

Molecular target: HAstV8 spike protein VP25 (residues S484 to R708) (human astrovirus 8 (HAstV8))
Test: BLI

Sequence of neonatal Fc receptor (FcRn), recombinant ectodomains (P55899 24-297): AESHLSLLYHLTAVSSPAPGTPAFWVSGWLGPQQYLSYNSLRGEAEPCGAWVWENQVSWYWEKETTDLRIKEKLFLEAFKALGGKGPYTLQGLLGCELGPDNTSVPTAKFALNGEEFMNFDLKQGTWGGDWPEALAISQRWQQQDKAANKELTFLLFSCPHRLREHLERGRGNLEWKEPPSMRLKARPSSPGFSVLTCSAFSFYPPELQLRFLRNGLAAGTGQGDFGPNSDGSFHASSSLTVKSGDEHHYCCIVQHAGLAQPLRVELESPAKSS
Sequence of neonatal Fc receptor (FcRn), recombinant ectodomains (P61769 21-119): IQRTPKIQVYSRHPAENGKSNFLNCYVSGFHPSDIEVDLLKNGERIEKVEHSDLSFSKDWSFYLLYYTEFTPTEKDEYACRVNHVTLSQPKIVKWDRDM
Sequence of HAstV8 spike protein VP25 (residues S484 to R708) (human astrovirus 8 (HAstV8)) (Q9IFX1 424-648 limits assumed): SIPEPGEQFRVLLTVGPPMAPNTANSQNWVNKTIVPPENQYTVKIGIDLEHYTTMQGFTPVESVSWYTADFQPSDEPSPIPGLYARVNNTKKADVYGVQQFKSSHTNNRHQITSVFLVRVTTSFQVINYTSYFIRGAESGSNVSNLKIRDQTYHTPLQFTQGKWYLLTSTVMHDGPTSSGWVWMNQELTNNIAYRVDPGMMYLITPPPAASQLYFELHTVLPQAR

neonatal Fc receptor (FcRn), recombinant ectodomains (from UniProt P55899;P61769) (complex)
Kd: 623 nM
half-life: 4.68 s
